Experimental data reported in PMC11440250 (iScience, 2024).

Target: the molecule itself
Assay: cross-linking

B1: Flag-PKM2 K207R (enzyme)
chain: not shown
- binding result: binds
